This note sets out measurements from patent US20250002534A1.

The assay deals with recombinant LanCL1 (Lanthionine synthetase C-like protein 1) (UniProt O43813). Kind of assay: competition: displacement of photoprobe SEQ ID NO:22 from rLANCL1, in-gel fluorescence.

Some results are limits rather than exact numbers.

Sequence of recombinant LanCL1 (Lanthionine synthetase C-like protein 1) (O43813 whole entry): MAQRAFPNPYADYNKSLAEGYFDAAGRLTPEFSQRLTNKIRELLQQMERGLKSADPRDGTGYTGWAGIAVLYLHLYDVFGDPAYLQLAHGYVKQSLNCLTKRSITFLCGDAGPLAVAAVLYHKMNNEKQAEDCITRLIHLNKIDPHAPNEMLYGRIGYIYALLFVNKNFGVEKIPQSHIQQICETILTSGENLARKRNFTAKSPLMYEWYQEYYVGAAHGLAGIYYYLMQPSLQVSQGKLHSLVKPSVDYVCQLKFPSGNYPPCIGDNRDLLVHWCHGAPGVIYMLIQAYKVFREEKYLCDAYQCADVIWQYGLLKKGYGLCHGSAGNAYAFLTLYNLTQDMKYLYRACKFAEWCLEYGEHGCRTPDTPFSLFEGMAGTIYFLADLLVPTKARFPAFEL

With RALNSS [peptide of SEQ ID NO:39, RALNSS], the ED50 displacement value was more than 200 µM.
